Experimental data: patent publication US20190135932A1 (Pfizer, published 2019)
Where “and” joins values, the source holds several entries; their conditions need not be identical. Equal values may be shown once.

T1: human OX40R on activated primary human T cells (human, UniProt P43489 29-277)
T1 sequence (looked up): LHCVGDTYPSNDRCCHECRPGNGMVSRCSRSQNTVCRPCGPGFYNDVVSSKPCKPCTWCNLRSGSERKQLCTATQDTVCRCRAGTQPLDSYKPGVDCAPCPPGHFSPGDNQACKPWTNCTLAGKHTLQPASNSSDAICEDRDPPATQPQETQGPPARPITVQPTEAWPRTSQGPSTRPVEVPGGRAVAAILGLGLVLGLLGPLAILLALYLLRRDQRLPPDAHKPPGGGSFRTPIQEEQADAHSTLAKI

T2: human OX40R-Ig fusion protein (extracellular domain, amino acids 1-220, of human OX40R fused to the constant … (human, UniProt P43489 29-220))
T2 construct: range 1-220; Range 1-220 as printed; also called OX40-Ig; OX40-human IgG1 fusion protein; not shown: constant region of human IgG1
T2 sequence (looked up): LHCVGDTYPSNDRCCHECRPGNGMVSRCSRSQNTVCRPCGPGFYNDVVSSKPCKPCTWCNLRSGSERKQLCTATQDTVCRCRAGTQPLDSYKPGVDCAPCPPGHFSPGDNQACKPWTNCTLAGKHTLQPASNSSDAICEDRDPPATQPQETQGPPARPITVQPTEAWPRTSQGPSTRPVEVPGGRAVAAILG

T3: mouse OX40R on activated mouse T cells (mouse, UniProt P47741 20-272)
T3 construct: whole, on cells; also called mouse cells; murine OX40R
T3 sequence (looked up): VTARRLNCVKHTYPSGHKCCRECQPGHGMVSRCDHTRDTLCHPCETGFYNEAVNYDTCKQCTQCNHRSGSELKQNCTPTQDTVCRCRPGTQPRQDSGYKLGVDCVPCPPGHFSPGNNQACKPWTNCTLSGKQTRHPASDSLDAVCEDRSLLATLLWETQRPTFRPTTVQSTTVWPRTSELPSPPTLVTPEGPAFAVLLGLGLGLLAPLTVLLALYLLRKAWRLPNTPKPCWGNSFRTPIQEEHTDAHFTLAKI

T4: rat OX40R on activated rat T cells (rat, UniProt P15725 20-271)
T4 construct: whole, on cells; also called rat cells
T4 sequence (looked up): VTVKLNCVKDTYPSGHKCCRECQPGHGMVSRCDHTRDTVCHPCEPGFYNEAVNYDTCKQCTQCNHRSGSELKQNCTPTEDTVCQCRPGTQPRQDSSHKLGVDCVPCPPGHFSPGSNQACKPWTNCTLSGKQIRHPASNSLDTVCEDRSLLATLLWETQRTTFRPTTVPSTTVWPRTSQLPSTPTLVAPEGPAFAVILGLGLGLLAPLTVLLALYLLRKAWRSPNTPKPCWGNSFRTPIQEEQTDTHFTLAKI


What was measured:
[1] = target: T1, human OX40R on activated primary human …; assay: cell-based or functional assay
[2] = target: T2, human OX40R-Ig fusion protein …; assay: ELISA on coated OX40-Ig fusion protein
[3] = target: T1, human OX40R on activated primary human …; assay: FACS saturation binding on CD3/CD28 stimulated human T cells (N = 4)
Experimental: OX40R-expressing cell lines (see below) or activated primary peripheral blood mononuclear cells (see below) were used to assess binding on both the human and cynomolgus OX40 receptors. Cells were harvested and washed (5×10⁵/tube) using wash buffer at RT°. The wash buffer consisted of PBS, 2% heat-inactivated fetal bovine serum (Hyclone, Logan, Utah) and 0.02% sodium azide (Sigma, St. Louis, Mo.). Next, 100 μl of various concentrations of antibody was added to the cells (starting at 30 ug/ml and using a 3-fold titration) diluted in wash buffer containing 0.005 mg/ml of cytocholasin B (Sigma, St. Louis, Mo.). The cells were gently rocked at RT° for 3 hours. Next, the cells were washed twice and resuspended in 0.5 ml/tube with cold wash buffer and 10,000 events were collected and analyzed using a Becton Dickinson FACSCalibur and CellQuest software (San Jose, Calif.).
Human whole blood was collected into heparinized syringes (Baxter; Deerfield, Ill.) and then immediately transferred to Sigma Accuspin tubes (Sigma, St. Louis, Mo.) for the isolation of peripheral blood mononuclear cells (PBMC) as described by the manufacturer. The PBMC were washed twice with DPBS and T lymphocytes were isolated using a T cell purification column as described by the manufacturer (R & D Systems, Minneapolis, Minn.). […]

[4] = target: T3, mouse OX40R on activated mouse T cells; assay: FACS, Alexa Fluor 647 conjugated antibody on activated T cells
Experimental: (§1) Rat whole blood collected in heparinized syringes was diluted 1:3 in warm HBSS. Next, 5 mls was carefully layered over an equal volume of Lympholyte-Rat (Cedarlane Laboratories, Westbury, N.Y.). The tubes were centrifuged for 20 minutes at 1500 RPM. The PBMCs interface was collected, washed twice and the cell pellet was re-adjusted to 2×10⁶/ml in TCM. Two mls of cells were added to each well of a 24 well plate and stimulated for 24-48 hours with PHA (Remel, Lenexa, Kans.) at 10 ng/ml prior to flow cytometry staining.
(§2) Stimulated mouse, rat, rabbit, dog and cynomolgus PBMCs and the 300-19 cell line expressing the cynomolgus OX40 receptor were used to test for human OX40 antibody species cross-reactivity. Human OX40 expressing activated T lymphocytes and OX40 transduced 300-19 cells were used as positive controls. Cells (5.0×10⁵/tube) were washed once in cold wash buffer (PBS, 2% FBS and 0.02% sodium azide) and 100 μl/tube of Alexa Fluor 647 conjugated control or OX40 reactive antibodies at 5 ug/ml was added to each tube. The antibodies were labeled using an Alex Fluor 647 protein labeling kit as described by the manufacturer (Molecular Probes, Eugene, Oreg.). […] Antibody staining was measured and analyzed using a Becton Dickinson FACSCalibur and CellQuest software (San Jose, Calif.).

[5] = target: T4, rat OX40R on activated rat T cells; assay: as above
Experimental: as §1, §2

Augmentation of T Cell Activity (EC50): CD3 induced IL-2 production (N = 4) [1] | Augmentation of T Cell Activity (EC50): Stimulation of IL-2 production by antigen-primed cells (N = 1) [1] | EC50 [2] | EC50 [3] | binding result [4] | binding result [5] | Binder
0.049 µg/ml and 0.33 nM | 0.014 µg/ml and 0.1 nM | 0.034 µg/mL and 0.23 nM | 1.06 µg/mL and 7.3 nM |  |  | human monoclonal antibody 18D8 (antibody, human IgG2, kappa, V domains shown) VH: EVQLVESGGGLVQPGRSLRLSCAASGFTFDDYAMHWVRQAPGKGLEWVSGISWNSGSIGYADSVKGRFTISRDNAKNSLYLQMNSLRAEDTALYYCAKDQSTADYYFYYGMDVWGQGTTVTVSS VL: EIVVTQSPATLSLSPGERATLSCRASQSVSSYLAWYQQKPGQAPRLLIYDASNRATGIPARFSGSGSGTDFTLTISSLEPEDFAVYYCQQRSNWPTFGQGTKVEIKR
 |  |  |  | no binding (tested: 5 ug/ml) | no binding (tested: 5 ug/ml) | human monoclonal antibody 11D4 (antibody, V domains shown, IgG2 heavy chain, kappa light chain; allotypes G2(n-) and Km3; Alexa Fluor 647 conjugate was used in the species cross-reactivity FACS) VH: EVQLVESGGGLVQPGGSLRLSCAASGFTFSSYSMNWVRQAPGKGLEWVSYISSSSSTIDYADSVKGRFTISRDNAKNSLYLQMNSLRDEDTAVYYCARESGWYLFDYWGQGTLVTVSS VL: DIQMTQSPSSLSASVGDRVTITCRASQGISSWLAWYQQKPEKAPKSLIYAASSLQSGVPSRFSGSGSGTDFTLTISSLQPEDFATYYCQQYNSYPPTFGGGTKVEIKR
